Data on two proteins can be found in publication PMC3992121 (Proteins, 2013).

The series deals with the molecule itself. In words: SEC.

B1: BaiA2, 3α-Hydroxysteroid Dehydrogenase from Clostridium scindens VPI 12708 (enzyme, UniProt P19337 1-249, looked up)
chain: MNLVQDKVTIITGGTRGIGFAAAKIFIDNGAKVSIFGETQEEVDTALAQLKELYPEEEVLGFAPDLTSRDAVMAAVGQVAQKYGRLDVMINNAGITSNNVFSRVSEEEFKHIMDINVTGVFNGAWCAYQCMKDAKKGVIINTASVTGIFGSLSGVGYPASKASVIGLTHGLGREIIRKNIRVVGVAPGVVNTDMTNGNPPEIMEGYLKALPMKRMLEPEEIANVYLFLASDLASGITATTVSVDGAYRP
modifications: selenomethionine (protein expressed in a selenomethionine-containing medium for structure determination)
Take B1: the “stoichiometry N” value turned out to be 4.

B2: BaiA1, 3α-Hydroxysteroid Dehydrogenase from Clostridium scindens VPI 12708 (enzyme, UniProt P07914 1-249, looked up)
chain: MKLVQDKITIITGGTRGIGFAAAKLFIENGAKVSIFGETQEEVDTALAQLKELYPEEEVLGFAPDLTSRDAVMAAVGTVAQKYGRLDVMINNAGITMNSVFSRVSEEDFKNIMDINVNGVFNGAWSAYQCMKDAKQGVIINTASVTGIYGSLSGIGYPTSKAGVIGLTHGLGREIIRKNIRVVGVAPGVVDTDMTKGLPPEILEDYLKTLPMKRMLKPEEIANVYLFLASDLASGITATTISVDGAYRP
As to B2, the “stoichiometry N” value is 4.
